Experimental data: the supplement of paper PMC6757056
± gives the standard deviation of the averaged measurements.

B1: library; a variant is named by its letters at N, in order (parent)
chain: GCUGUCACCGGAAUACCAGCAUCGUCUUGAUGCCCUUGGAAGUCCGGUCUGAUGAGUCCNNNNNGGACGAAACAGC

How the values were obtained:
theophylline [1] = variants of: B1; experiment: FACS-Seq fitted mean relative fluorescence mCherry/BFP without ligand (log10 relative fluorescence); higher = higher reporter protein expression; conditions: HEK293T, ligand present: no
Method in brief: (§1)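 Genomic DNA from 6 mCherry/BFP sort bins was PCR-amplified, barcoded and sequenced on MiSeq. The sorted cells were enriched HEK293T libraries, lentivirally transduced with a ribozyme-switch mCherry reporter and an EF1α-BFP marker, incubated with or without ligand for 48 h. Fluorescence derives from a normal fit to the bin counts. The fit was on log10(mCherry/BFP), and means were scaled to five spiked-in control ribozymes.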

theophylline [2] = variants of: B1; experiment: normalized RNA/DNA level with ligand (relative to sTRSVctl = 100) (log10 (% of sTRSVctl)); higher = less ribozyme self-cleavage, higher mRNA level; conditions: ligand concentration (+) RNA-Seq: 5 mM, HEK293T, reporter: mCherry (pCS4076), ligand present: yes
Method in brief: (§2)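 HEK293T cells received ligand, where used, 1 h before being transfected with 4 µg per 6-well well of library plasmids encoding reporter-linked ribozyme switches. After 72 h, RNA was extracted with EDTA and sequenced. RNA level was derived from RNA reads per DNA read, normalized to a spiked-in non-cleaving sequence or the top sequences, then scaled and log-transformed. Values were ×100 then log10, the top set was 25 sequences, and the minimum was 100 DNA reads.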

theophylline [3] = variants of: B1; experiment: normalized RNA/DNA level without ligand (relative to sTRSVctl = 100) (log10 (% of sTRSVctl)); higher = less ribozyme self-cleavage, higher mRNA level; conditions: HEK293T, reporter: mCherry (pCS4076), ligand present: no
Method in brief: as §2

theophylline [4] = variants of: B1; experiment: FACS-Seq fitted mean relative fluorescence mCherry/BFP with ligand (log10 relative fluorescence); ligand concentration (+) FACS-Seq: 1 mM; higher = higher reporter protein expression; conditions: HEK293T, ligand present: yes
Method in brief: as §1

| Variant | FACS-Seq fitted mean (log10) (theophylline [1]) | normalized RNA/DNA level with ligand (log10) (theophylline [2]) | normalized RNA/DNA level without ligand (log10) (theophylline [3]) | FACS-Seq fitted mean (log10) (theophylline [4]) |
| --- | --- | --- | --- | --- |
| GCUGUCACCGGAAUACCAGCAUCGUCUUGAUGCCCUUGGAAGUCCGGUCUGAUGAGUCCAUUAUGGACGAAACAGC [AUUAU] | 0.905 ± 0.075 | 2.01 ± 0.021 | 1.88 ± 0.097 | 0.861 ± 0.095 |
| GCUGUCACCGGAAUACCAGCAUCGUCUUGAUGCCCUUGGAAGUCCGGUCUGAUGAGUCCAUUACGGACGAAACAGC [AUUAC] | 1.05 ± 0.17 | 1.99 ± 0.021 | 1.96 ± 0.12 | 0.926 ± 0.096 |
| GCUGUCACCGGAAUACCAGCAUCGUCUUGAUGCCCUUGGAAGUCCGGUCUGAUGAGUCCAUUAGGGACGAAACAGC [AUUAG] | 0.738 ± 0.021 | 2.049 ± 0.0068 | 1.9 ± 0.094 | 0.738 ± 0.013 |
| GCUGUCACCGGAAUACCAGCAUCGUCUUGAUGCCCUUGGAAGUCCGGUCUGAUGAGUCCCUUAUGGACGAAACAGC [CUUAU] | 0.864 ± 0.067 | 2.04 ± 0.071 | 1.907 ± 0.014 | 0.901 ± 0.013 |
| GCUGUCACCGGAAUACCAGCAUCGUCUUGAUGCCCUUGGAAGUCCGGUCUGAUGAGUCCCUUACGGACGAAACAGC [CUUAC] | 0.44 ± 0.11 | 2.04 ± 0.065 | 1.95 ± 0.15 | 0.194 ± 0.17 |
| GCUGUCACCGGAAUACCAGCAUCGUCUUGAUGCCCUUGGAAGUCCGGUCUGAUGAGUCCCUUAAGGACGAAACAGC [CUUAA] | 0.633 ± 0.018 | 1.98 ± 0.15 | 1.61 ± 0.14 | 0.961 ± 0.12 |
| GCUGUCACCGGAAUACCAGCAUCGUCUUGAUGCCCUUGGAAGUCCGGUCUGAUGAGUCCUUUAUGGACGAAACAGC [UUUAU] | 0.444 ± 0.021 | 2.0202 ± 0.001 | 1.93 ± 0.06 | 0.417 ± 0.012 |
| GCUGUCACCGGAAUACCAGCAUCGUCUUGAUGCCCUUGGAAGUCCGGUCUGAUGAGUCCUUUAAGGACGAAACAGC [UUUAA] | 0.514 ± 0.017 | 2.05 ± 0.08 | 1.69 ± 0.019 | 0.695 ± 0.019 |
| GCUGUCACCGGAAUACCAGCAUCGUCUUGAUGCCCUUGGAAGUCCGGUCUGAUGAGUCCUUUACGGACGAAACAGC [UUUAC] | 0.968 ± 0.059 | 2.06 ± 0.073 | 1.98 ± 0.066 | 0.808 ± 0.084 |
